{"source": "patent US20150086535A1", "target": "retinoblastoma protein (RB1) (human) (UniProt P06400)", "sequence (P06400 2-928 limits assumed)": "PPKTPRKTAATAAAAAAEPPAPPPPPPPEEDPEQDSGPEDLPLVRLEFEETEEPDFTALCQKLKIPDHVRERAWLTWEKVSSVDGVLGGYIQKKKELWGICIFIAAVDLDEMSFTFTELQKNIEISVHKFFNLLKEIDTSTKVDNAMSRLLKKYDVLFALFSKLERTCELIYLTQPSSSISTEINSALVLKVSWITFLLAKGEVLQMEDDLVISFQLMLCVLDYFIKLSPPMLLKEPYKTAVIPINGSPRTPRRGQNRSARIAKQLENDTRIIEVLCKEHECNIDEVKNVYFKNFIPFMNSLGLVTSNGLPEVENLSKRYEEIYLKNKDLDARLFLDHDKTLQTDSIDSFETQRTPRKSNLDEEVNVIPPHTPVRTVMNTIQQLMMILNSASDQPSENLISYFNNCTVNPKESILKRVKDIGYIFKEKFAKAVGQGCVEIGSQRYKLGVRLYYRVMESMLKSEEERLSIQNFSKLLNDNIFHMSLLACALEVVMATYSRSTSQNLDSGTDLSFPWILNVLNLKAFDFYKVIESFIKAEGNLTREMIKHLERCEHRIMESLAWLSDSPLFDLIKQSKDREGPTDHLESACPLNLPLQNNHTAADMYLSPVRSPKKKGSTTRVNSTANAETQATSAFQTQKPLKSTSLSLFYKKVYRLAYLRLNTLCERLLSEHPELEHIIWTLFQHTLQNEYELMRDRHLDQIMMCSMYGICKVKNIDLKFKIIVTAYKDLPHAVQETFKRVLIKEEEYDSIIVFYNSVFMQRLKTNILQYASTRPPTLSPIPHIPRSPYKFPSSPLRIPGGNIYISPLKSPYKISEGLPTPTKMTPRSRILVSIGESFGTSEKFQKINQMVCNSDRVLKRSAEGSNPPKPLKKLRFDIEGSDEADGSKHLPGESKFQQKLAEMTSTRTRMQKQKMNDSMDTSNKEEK", "assay": "cell-based or functional assay", "data": [{"substance": "Truncated tumor-derived Merkel cell polyomavirus large T antigen LT339 (MCV339 strain, amino acid 1-455)", "values": [{"measurement": "survivin protein level in BJ fibroblasts (ECL and quantitative LICOR immunoblotting)", "value": 3, "unit": "fold"}]}]}
